Molecular target: non-muscle myosin IIB (NM IIB) (rat (endogenous in hippocampal neurons of Sprague-Dawley rats and in PC12)) (UniProt Q9JLT0)
Experiment: proximity ligation; Duolink in situ PLA on fixed, permeabilised cultured hippocampal neurons (growth cones); primary antibodies against βPIX (or kalirin) and NM IIB, or βPIX and GIT; with or without 50 µM BBS for 15 or 30 min

UniProt Q9JLT0, sequence (Q9JLT0 whole entry): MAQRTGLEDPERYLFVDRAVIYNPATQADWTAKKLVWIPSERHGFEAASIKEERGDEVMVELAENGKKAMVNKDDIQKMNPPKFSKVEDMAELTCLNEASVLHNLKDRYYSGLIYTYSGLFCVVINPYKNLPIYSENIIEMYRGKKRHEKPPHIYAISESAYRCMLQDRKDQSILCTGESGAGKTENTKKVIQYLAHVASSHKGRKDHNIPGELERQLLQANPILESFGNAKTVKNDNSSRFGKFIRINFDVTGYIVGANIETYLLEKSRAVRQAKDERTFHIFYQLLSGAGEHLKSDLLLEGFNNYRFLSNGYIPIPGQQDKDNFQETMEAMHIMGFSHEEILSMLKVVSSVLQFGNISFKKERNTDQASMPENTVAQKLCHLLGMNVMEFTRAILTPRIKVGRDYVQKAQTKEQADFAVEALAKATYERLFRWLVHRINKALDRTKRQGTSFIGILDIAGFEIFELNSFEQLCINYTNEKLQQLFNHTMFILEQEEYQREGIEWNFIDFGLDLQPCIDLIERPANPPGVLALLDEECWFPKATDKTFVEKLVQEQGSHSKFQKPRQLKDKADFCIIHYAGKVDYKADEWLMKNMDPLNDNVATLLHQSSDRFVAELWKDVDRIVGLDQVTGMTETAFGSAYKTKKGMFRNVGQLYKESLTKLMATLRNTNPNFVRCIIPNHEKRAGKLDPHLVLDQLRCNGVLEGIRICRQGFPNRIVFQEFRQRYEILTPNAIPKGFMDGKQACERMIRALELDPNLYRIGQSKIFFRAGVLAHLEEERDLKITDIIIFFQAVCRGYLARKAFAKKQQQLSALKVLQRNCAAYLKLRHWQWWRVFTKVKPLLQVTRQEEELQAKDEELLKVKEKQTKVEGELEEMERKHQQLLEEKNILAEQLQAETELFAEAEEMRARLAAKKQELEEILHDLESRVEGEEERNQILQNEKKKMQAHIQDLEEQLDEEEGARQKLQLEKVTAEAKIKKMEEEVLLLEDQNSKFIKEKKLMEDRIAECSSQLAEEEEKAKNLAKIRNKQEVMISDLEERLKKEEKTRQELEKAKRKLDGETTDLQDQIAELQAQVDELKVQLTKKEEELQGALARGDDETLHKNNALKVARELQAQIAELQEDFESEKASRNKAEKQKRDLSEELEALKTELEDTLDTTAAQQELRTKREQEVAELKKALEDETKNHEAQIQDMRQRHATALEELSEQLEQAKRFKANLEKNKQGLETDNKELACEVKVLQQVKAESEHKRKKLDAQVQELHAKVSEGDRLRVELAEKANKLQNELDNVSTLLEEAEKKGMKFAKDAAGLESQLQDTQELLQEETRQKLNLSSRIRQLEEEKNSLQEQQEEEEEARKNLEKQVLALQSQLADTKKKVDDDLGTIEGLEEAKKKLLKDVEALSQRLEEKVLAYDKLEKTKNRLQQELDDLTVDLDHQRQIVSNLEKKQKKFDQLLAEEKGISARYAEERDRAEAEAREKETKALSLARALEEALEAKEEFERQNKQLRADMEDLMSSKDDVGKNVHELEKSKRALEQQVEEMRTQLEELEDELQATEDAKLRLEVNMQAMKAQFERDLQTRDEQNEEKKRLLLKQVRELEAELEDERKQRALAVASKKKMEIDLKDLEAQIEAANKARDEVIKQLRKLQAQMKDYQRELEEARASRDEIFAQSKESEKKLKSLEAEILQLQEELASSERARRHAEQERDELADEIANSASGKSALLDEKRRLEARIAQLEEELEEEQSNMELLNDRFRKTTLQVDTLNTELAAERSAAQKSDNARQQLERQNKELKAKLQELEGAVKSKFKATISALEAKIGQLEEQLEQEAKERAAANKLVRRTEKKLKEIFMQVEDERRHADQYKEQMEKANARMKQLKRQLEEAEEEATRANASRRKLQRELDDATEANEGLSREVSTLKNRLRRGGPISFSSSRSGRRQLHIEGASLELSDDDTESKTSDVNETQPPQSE

- PLA fluorescence intensity in the actin-positive area 30 min after BBS, percent of untreated growth cones (% of untreated): 51
Substance: βPIX (endogenous, hippocampal neurons) (from UniProt O55043 1-646) (natural protein)

Source: publication PMC3994028
